This note sets out measurements from patent publication US20210253688A1 (UCB, published 2021).

The term Kd denotes a measure of binding affinity in units of concentration.

B2: human Gremlin-1 (full length; recombinant human Gremlin 1) (ligand)
chain: KKKGSQGAIPPPDKAQHNDSEQTQSPQQPGSRNRGRGQGRGTAMPGEEVLESSQEALHVTERKYLKRDWCKTQPLKQTIHEEGCNSRTIINRFCYGQCNSFYIPRHIRKEEGSFQSCSFCKPKKFTTMMVTLNCPELQPPTKKKRVTRVKQCRCISIDLD

One test deals with T1, BMP4/7 heterodimer (human, UniProt P12644 293-408; P18075 293-431).
T1 sequence (looked up) 1: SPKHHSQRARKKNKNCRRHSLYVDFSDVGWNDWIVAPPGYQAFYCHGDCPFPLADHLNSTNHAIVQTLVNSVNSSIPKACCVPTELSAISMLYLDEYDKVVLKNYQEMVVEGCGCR
T1 sequence (looked up) 2: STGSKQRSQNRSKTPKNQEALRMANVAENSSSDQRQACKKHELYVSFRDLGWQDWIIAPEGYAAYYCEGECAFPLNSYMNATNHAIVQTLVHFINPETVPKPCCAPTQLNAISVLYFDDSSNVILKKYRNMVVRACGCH
The experiment in a line: cell-based or functional assay.

Test [1] deals with B2. The test can be described thus: cell-based or functional assay.
The target of the next test is T2, mouse Gremlin (mouse, UniProt O70326 25-184).
T2 sequence (looked up): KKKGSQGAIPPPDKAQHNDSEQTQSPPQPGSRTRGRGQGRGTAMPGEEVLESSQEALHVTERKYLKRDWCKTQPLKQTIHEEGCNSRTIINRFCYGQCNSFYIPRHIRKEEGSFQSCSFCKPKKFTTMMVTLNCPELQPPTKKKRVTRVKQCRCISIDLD
The experiment in a line: cell-based or functional assay.

Test [2] concerns the target B2. The test can be described thus: SPR, Biacore T200, 25 °C; mIgG captured on anti-mouse Fc, recombinant human Gremlin 1 titrated from 5 nM; average of 5 determinations. As for the experimental part:
The affinity of anti-Gremlin mIgG for human Gremlin 1 was determined by biamolecular interaction analysis using surface plasmon resonance (SPR) technology on a Biacore T200 system, GE Healthcare Bio-Sciences AB. Anti-Gremlin mIgG was captured by an immobilised anti-mouse Fc surface and Gremlin 1 was titrated over the captured mIgG. The capture ligand (affinipure F(ab′)₂ fragment of goat anti-mouse IgG, Fc fragment specific, 115-006-071, Jackson ImmunoResearch Inc.) was immobilised at 50 μg/ml in 10 mM NaAc, pH 5.0 on flow cell 2 of a CM4 Sensor Chip via amine coupling chemistry, using 600 s activation and deactivation injections, to a level of ˜1600 response units (RU). HBS-EP+ buffer (0.01 M HEPES pH 7.4, 0.15 M NaCl, 3 mM EDTA, 0.05% Surfactant P20) was used as the running buffer with a flow rate of 10 μ1/min. A reference surface was prepared on flow cell 1 by activating and deactivating the surface as for flow cell 2 but omitting the capture ligand.
The assay buffer was HBS-EP+ plus an extra 150 mM NaCl to give a final NaCl concentration of 300 mM plus 1% CMD40. A 60 s injection of anti-Gremlin mIgG (at 5 μg/ml in running buffer) was passed over flow cells 1 and 2 to give a capture level of approximately 100 RU on the immobilised anti-mouse IgG, Fc surface. […]
The kinetic data was determined using Biacore T200 evaluation software.
On the technique in general: SPR reads the build-up and loss of mass on a sensor chip optically.

B1: truncated human Gremlin-1 (E. coli expressed, refolded, N-terminal 6His-TEV tag) (ligand)
chain: MGSSHHHHHHSSGENLYFQGSAMPGEEVLESSQEALHVTERKYLKRDWCKTQPLKQTIHEEGCNSRTIINRFCYGQCNSFYIPRHIRKEEGSFQSCSFCKPKKFTTMMVTLNCPELQPPTKKKRVTRVKQCRCISIDLD
Consider B1, for which the “IC50, Hek-Id1 reporter gene assay, geometric mean (N=2)” value with BMP4/7 heterodimer worked out at 1.7 nM.

Take B2: the “IC50, Hek-Id1 reporter gene assay, geometric mean (N=2)” value with BMP4/7 heterodimer is 1.6 nM.

B3: Ab7326 (format in the assay not stated) (antibody, V domains shown)
VH: QVQLVESGAEVKKPGATVKISCKVSGYTFTDYYMHWVQQAPGKGLEWMGLVDPEDGETIYAEKFQGRVTITADTSTDTAYMELSSLRSEDTAVYYCATDARGSGSYYPNHFDYWGQGTLVTVSS
VL: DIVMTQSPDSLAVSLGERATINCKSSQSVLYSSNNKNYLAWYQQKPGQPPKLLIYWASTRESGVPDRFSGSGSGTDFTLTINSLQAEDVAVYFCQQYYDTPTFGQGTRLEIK
For B3, the “IC50, Hek-Id1 reporter gene assay, restoration of BMP signalling” value worked out at 1.3 nM in test [1] and 0.2 nM with mouse Gremlin.

B4: Ab7326 mouse full length IgG1 (antibody, V domains shown)
VH: QVQLVESGAEVKKPGATVKISCKVSGYTFTDYYMHWVQQAPGKGLEWMGLVDPEDGETIYAEKFQGRVTITADTSTDTAYMELSSLRSEDTAVYYCATDARGSGSYYPNHFDYWGQGTLVTVSS
VL: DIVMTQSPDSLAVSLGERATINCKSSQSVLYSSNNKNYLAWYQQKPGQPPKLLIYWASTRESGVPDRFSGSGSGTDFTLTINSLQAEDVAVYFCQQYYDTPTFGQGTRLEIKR
notes: also called anti-Gremlin mIgG; UCB Ab7326 mouse IgG1
B4: the Kd in test [2] was below 0.1 nM.
